# Target: caspase-9 (UniProt P55211)
# Experiment: Ki printed in running text; no assay described
substance,measurement,value
"Ac-DEVD-CHO, N-(N-Ac-Asp-Glu-Val)-3-amino-4-oxobutanoic acid (peptide)",Ki,60 nM

# Reference: US6855515
